Reference: publication PMC11224109, “Synthesis and preclinical evaluation of novel ^18F-vancomycin-based tracers for the detection of bacterial infections using positron emission tomography” (European Journal of Nuclear Medicine and Molecular Imaging, 2024)

Columns and labels:
[1] = Distribution coefficient LogD7.4, shake-flask n-octanol/PBS; type: physicochemical; settings: shake-flask n-octanol/PBS pH 7.4, 500 µL each, 10 µL tracer in saline, vortexed 30 s, shaken 15 min, gamma counter, mean ± SD
Procedure: The tracer distribution coefficient in n-octanol/PBS pH 7.4 (LogD7.4) was determined using a shake-flask methodology. To an Eppendorf tube containing 500 µL n-octanol and 500 µL PBS, 10 µL tracer solution in saline was added. The vial was vortexed for 30 s and placed on an Eppendorf shaker for 15 min. After incubation, layers were separated by centrifugation (1 min at 10.000 rpm) and a fraction of the n-octanol layer was pipetted off. To minimize contamination of the bottom layer with the n-octanol layer, the bottom PBS layer was collected by puncturing the bottom of the Eppendorf tube with a 22G needle and aspirating a fraction of the PBS layer. Collected fractions were weighted to correct for collected volume and subsequently measured on a calibrated gamma counter and corrected for decay. LogD7.4 was calculated as [drawing 1] .

[2] = test system: Gram-positive bacteria; assay: Tracer binding to test panel of clinically relevant bacteria, Gram-positive; design: species or system C. acnes, E. faecalis, S. aureus, S. capitis, S. epidermidis; settings: summary table
Procedure: Clinical isolates of E. cloacae, S. capitis, S. aureus, as well as type strains of E. coli, E. faecalis, K. pneumoniae, P. aeruginosa and S. epidermidis were grown under aerobic conditions in brain heart infusion broth. A clinical isolate of the anaerobic bacterium C. acnes was grown on plate in an anaerobic chamber, and subsequently cultured in liquid medium with minimal headspace. Samples from fresh bacterial cultures were normalized to an OD600 of 1.0, fixed in PBS with 0.5% paraformaldehyde (PFA) for 10 min at room temperature, and resuspended in 1 mL sterile PBS. The fixated bacteria were incubated with tracer (133 kBq per mL, 42.8 pg and 0.6 pg of [^18F]BODIPY-FL-vancomycin and [^18F]PQ-VE1-vancomycin, respectively) and washed twice with sterile PBS. […] Measurements were corrected for background and decay. Results are reported as percentage of the total tracer added.

[3] = Biodistribution in vivo and PET in healthy mice; settings: for tissue uptake at 0.5 h / tissue uptake at 1 h / tissue uptake at 1.5 h: male, C57BL/6, mouse, in vivo, iv, 2 MBq, total radioactivity, Biodistribution, healthy male C57BL/6 mice, penile vein injection, gamma counter, mean of n = 3; for tissue uptake at 0.5 h: 30 min; for tissue uptake at 1 h: 60 min; for tissue uptake at 1.5 h: 90 min
Procedure: All murine experiments were approved by the Animal Care and Use Committee of the University of Groningen under license protocol number 2114768-01-001. In vivo biodistribution was performed in male C57BL/6 mice (age 8 weeks, 25 g). Per tracer, the animals were divided in three groups based on the tracer distribution times (30 min, 60 min, and 90 min). […] Each experimental arm (i.e. time point) consisted of three animals. […] Tracer was administered at t = 0 via penile vein injection (2.0 ± 0.9 MBq in 100 µL 0.9% saline solution, Supplemental Table 2). After tracer administration, the animals were transferred to a Siemens Focus 220 microPET small animal scanner (Siemens, Munich, Germany) and scanned for the designated time, followed by a transmission scan of 10 min for attenuation correction. PET data were normalized and corrected for decay, after which the PET data were reconstructed using OSEM2D-Z1-SC-256. The PET data frames used for reconstruction were: 6 × 10 s, 4 × 30 s, 2 × 60 s, 120 s, 180 s, 4 × 300 s, 3 × 600 s, 1200 s or until the designated scan time was reached, taking into account a 10-min transmission scan following the emission scan. Next, animals were terminated, and organs harvested to assay biodistribution in a calibrated gamma counter (Wizard2, Perkin Elmer, Waltham, United States).

[4] = Summary of tracer stability in vitro and in vivo; settings: summary table, in vitro and in vivo
Procedure: Stability of the tracers was determined in PBS and human plasma. In a typical experiment, 1 MBq of radioactivity (10–20 µL) was added to 250 µL of PBS or human plasma. Samples were heated to 37 °C on a shaker and sampled at fixed intervals. For samples containing human plasma, protein was precipitated using two volumes of cold MeCN. Precipitated samples were briefly centrifuged to pellet the insoluble fraction and supernatant was used for stability assessment. Supernatant (1 µL) was loaded on a TLC plate and imaged using BAS-IP MS 2025 E plates (Fujifilm, Tokyo, Japan) on an Amersham Typhoon Biomolecular Imager (GE Healthcare Bio-Sciences Corp, Chicago, United States) equipped with a phosphor imaging stage. [^18F]BODIPY-FL-vancomycin has an Rf of 0.68 (petroleum ether/MeOH 3:1), [^18F]FB-vancomycin has an Rf of 0.66 (2 M NaOAc/MeOH 5:1). For [^18F]PQ-VE1-vancomycin, conditions described in [44] were used.

With `CN[C@H](CC(C)C)C(=O)N[C@H]1C(=O)N[C@@H](CC(N)=O)C(=O)N[C@H]2C(=O)N[C@H]3C(=O)N[C@H](C(=O)N[C@H](C(=O)O)c4cc(O)cc(O)c4-c4cc3ccc4O)[C@H](O)c3ccc(c(Cl)c3)Oc3cc2cc(c3O[C@@H]2O[C@H](CO)[C@@H](O)[C@H](O)[C@H]2O[C@H]2C[C@](C)(NC(=O)c3ccc4c5c(c6ccccc6c4c3)OCC(OCCF)O5)[C@H](O)[C@H](C)O2)Oc2ccc(cc2Cl)[C@H]1O` (stereo partly shown) [[^18F]PQ-VE1-vancomycin] the LogD7.4 [1] was -0.51 ± 0.07 (n = 9), the “Binding to Gram-positive bacteria in vitro” value [2] was “Binding to Gram-positive bacteria in vitro” and the “Crossing of the blood-brain barrier (BBB)” value ([3]; healthy mice, intravenous injection) was “no substantial signal was observed in the brain”. For the same compound, the Accumulation ([3]; healthy mice, summary table) was “Accumulation in spleen, liver and lungs”, the Clearance ([3]; healthy mice, summary table) was “Slow renal clearance” and the Muscle uptake ([3]; healthy mice, summary table) was “Low muscle uptake”. The tissue uptake at 0.5 h ([3]; Bladder) was 3.12 %ID/g, the tissue uptake at 1 h ([3]; Bladder) was 3.83 %ID/g and the tissue uptake at 1.5 h ([3]; Bladder) was 3.73 %ID/g. For the same compound, the tissue uptake at 0.5 h ([3]; Bone) was 1.14 %ID/g, the tissue uptake at 1 h ([3]; Bone) was 1.34 %ID/g and the tissue uptake at 1.5 h ([3]; Bone) was 0.75 %ID/g. It also gave a tissue uptake at 0.5 h ([3]; Brain) of 0.14 %ID/g, a tissue uptake at 1 h ([3]; Brain) of 0.14 %ID/g and a tissue uptake at 1.5 h ([3]; Brain) of 0.17 %ID/g. The tissue uptake at 0.5 h ([3]; Fat) was 0.81 %ID/g, the tissue uptake at 1 h ([3]; Fat) was 0.79 %ID/g and the tissue uptake at 1.5 h ([3]; Fat) was 0.55 %ID/g. The tissue uptake at 0.5 h ([3]; Heart) was 3.54 %ID/g, the tissue uptake at 1 h ([3]; Heart) was 2.6 %ID/g and the tissue uptake at 1.5 h ([3]; Heart) was 1.82 %ID/g. For the same compound, the tissue uptake at 0.5 h ([3]; Kidneys) was 3.37 %ID/g, the tissue uptake at 1 h ([3]; Kidneys) was 2.73 %ID/g and the tissue uptake at 1.5 h ([3]; Kidneys) was 2.04 %ID/g. The tissue uptake at 0.5 h ([3]; Large intestine) was 2.28 %ID/g, the tissue uptake at 1 h ([3]; Large intestine) was 1.81 %ID/g and the tissue uptake at 1.5 h ([3]; Large intestine) was 1.98 %ID/g. The tissue uptake at 0.5 h ([3]; Liver) was 10.5 %ID/g, the tissue uptake at 1 h ([3]; Liver) was 9.33 %ID/g and the tissue uptake at 1.5 h ([3]; Liver) was 7.72 %ID/g. For the same compound, the tissue uptake at 0.5 h ([3]; Lungs) was 4.71 %ID/g, the tissue uptake at 1 h ([3]; Lungs) was 3.8 %ID/g and the tissue uptake at 1.5 h ([3]; Lungs) was 3.21 %ID/g. The tissue uptake at 0.5 h ([3]; Muscle) was 0.86 %ID/g, the tissue uptake at 1 h ([3]; Muscle) was 0.85 %ID/g and the tissue uptake at 1.5 h ([3]; Muscle) was 0.6 %ID/g. The tissue uptake at 0.5 h ([3]; Plasma) was 6.12 %ID/g, the tissue uptake at 1 h ([3]; Plasma) was 4.47 %ID/g and the tissue uptake at 1.5 h ([3]; Plasma) was 2.88 %ID/g. It also gave a tissue uptake at 0.5 h ([3]; Small intestine) of 2.99 %ID/g, a tissue uptake at 1 h ([3]; Small intestine) of 2.19 %ID/g and a tissue uptake at 1.5 h ([3]; Small intestine) of 1.79 %ID/g. The tissue uptake at 0.5 h ([3]; Spleen) was 7.89 %ID/g, the tissue uptake at 1 h ([3]; Spleen) was 11.5 %ID/g and the tissue uptake at 1.5 h ([3]; Spleen) was 8.39 %ID/g. The tissue uptake at 0.5 h ([3]; Stomach) was 2.28 %ID/g, the tissue uptake at 1 h ([3]; Stomach) was 2.45 %ID/g and the tissue uptake at 1.5 h ([3]; Stomach) was 1.92 %ID/g. For the same compound, the tissue uptake at 0.5 h ([3]; Whole blood) was 3.71 %ID/g, the tissue uptake at 1 h ([3]; Whole blood) was 2.56 %ID/g and the tissue uptake at 1.5 h ([3]; Whole blood) was 1.86 %ID/g. The Stability [4] was “Stable in vitro and in vivo up to 2 h”.
